For data set [1], the system named is HeLa Kyoto. The data set is described as follows: thermal stability score vs G1/S (z-score of summed log2 fold changes over temperatures); higher = more thermally stable than in G1/S.
Data set [2] relates to HeLa Kyoto. Put plainly: solubility change mitosis vs G1/S (difference of NP-40 vs SDS log2 ratios) (log2 ratio difference); higher = more soluble in mitosis.
Data set [3] has as its system HeLa Kyoto. The data set is described as follows: melting temperature (median over replicates), in situ; higher = more thermally stable.
The subject of data set [4] is HeLa Kyoto. Put plainly: solubility in G1/S (NP-40 vs SDS abundance) (log2 ratio); higher = more soluble. As to conditions: cell cycle stage: G1/S.
[5] abbreviates: cell cycle stage: early G1 (4.5 h after nocodazole release).
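For melting temperature (median over replicates), in situ in this document: HeLa Kyoto cells synchronized by double thymidine or nocodazole block, proteins quantified by TMT10plex mass spectrometry, three independent biological replicates.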
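For solubility change mitosis vs G1/S (difference of NP-40 vs SDS log2 ratios) in this document: synchronized HeLa Kyoto cells (double thymidine block for G1/S, nocodazole release for mitosis), protein amounts in NP-40 versus SDS lysates quantified by mass spectrometry, three biological replicates.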
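For solubility in G1/S (NP-40 vs SDS abundance) in this document: HeLa Kyoto cells arrested at G1/S by double thymidine block, proteins quantified by TMT10plex mass spectrometry in mild NP-40 versus SDS extracts, three biological replicates.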
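For thermal stability score vs G1/S (z-score of summed log2 fold changes over temperatures) in this document: synchronized HeLa Kyoto cells, proteins quantified by TMT10plex mass spectrometry, three biological replicates, mitosis taken 0.5 h after nocodazole release, G1/S directly after double thymidine block.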

On to “MTEGTCLRRRGGPYKTEPATDLGRWRLNCERGRQTWTYLQDERAGREQTGLEAYALGLDTKNYFKDLPKAHTAFEGALNGMTFYVGLQAEDGHWTGDYGGPLFLLPGLLITCHVARIPLPAGYREEIVRYLRSVQLPDGGWGLHIEDKSTVFGTALNYVSLRILGVGPDDPDLVRARNILHKKGGAVAIPSWGKFWLAVLNVYSWEGLNTLFPEMWLFPDWAPAHPSTLWCHCRQVYLPMSYCYAVRLSAAEDPLVQSLRQELYVEDFASIDWLAQRNNVAPDELYTPHSWLLRVVYALLNLYEHHHSAHLRQRAVQKLYEHIVADDRFTKSISIGPISKTINMLVRWYVDGPASTAFQEHVSRIPDYLWMGLDGMKMQGTNGSQIWDTAFAIQALLEAGGHHRPEFSSCLQKAHEFLRLSQVPDNPPDYQKYYRQMRKGGFSFSTLDCGWIVSDCTAEALKAVLLLQEKCPHVTEHIPRERLCDAVAVLLNMRNPDGGFATYETKRGGHLLELLNPSEVFGDIMIDYTYVECTSAVMQALKYFHKRFPEHRAAEIRETLTQGLEFCRRQQRADGSWEGSWGVCFTYGTWFGLEAFACMGQTYRDGTACAEVSRACDFLLSRQMADGGWGEDFESCEERRYLQSAQSQIHNTCWAMMGLMAVRHPDIEAQERGVRCLLEKQLPNGDWPQENIAGVFNKSCAISYTSYRNIFPIWALGRFSQLYPERALAGHP [LSS]”, for which the figures for the thermal stability score in data set [1] (setting [5]) and in data set [1] (cell cycle stage: mitosis) were 0.214 and 0.242, respectively. For the same substance, in data set [2], the “solubility change mitosis (log2)” value was 0.0123. The results for the melting temperature in data set [3] (cell cycle stage: G1/S) and in data set [3] (cell cycle stage: mitosis) were 52.7 °C and 52.6 °C, respectively. Moreover, in data set [4], the “solubility in G1/S (log2)” value was -0.253.
With “MVWPWVAMASRWGPLIGLAPCCLWLLGAVLLMDASARPANHSSTRERVANREENEILPPDHLNGVKLEMDGHLNRGFHQEVFLGKDLGGFDEDAEPRRSRRKLMVIFSKVDVNTDRKISAKEMQRWIMEKTAEHFQEAMEESKTHFRAVDPDGDGHVSWDEYKVKFLASKGHSEKEVADAIRLNEELKVDEETQEVLENLKDRWYQADSPPADLLLTEEEFLSFLHPEHSRGMLRFMVKEIVRDLDQDGDKQLSVPEFISLPVGTVENQQGQDIDDNWVKDRKKEFEELIDSNHDGIVTAEELESYMDPMNEYNALNEAKQMIAVADENQNHHLEPEEVLKYSEFFTGSKLVDYARSVHEEF [SDF4]”, the thermal stability score was 2.12 in data set [1] (setting [5]) and 3 in data set [1] (cell cycle stage: mitosis). Also, the “solubility change mitosis (log2)” value in data set [2] was -0.0276. The melting temperature in data set [3] (cell cycle stage: G1/S) came out at 52.8 °C; in data set [3] (cell cycle stage: mitosis) it was 53.9 °C. For the same substance, the “solubility in G1/S (log2)” value in data set [4] was determined as 0.52.
For “MADAGIRRVVPSDLYPLVLGFLRDNQLSEVANKFAKATGATQQDANASSLLDIYSFWLKSAKVPERKLQANGPVAKKAKKKASSSDSEDSSEEEEEVQGPPAKKAAVPAKRVGLPPGKAAAKASESSSSEESSDDDDEEDQKKQPVQKGVKPQAKAAKAPPKKAKSSDSDSDSSSEDEPPKNQKPKITPVTVKAQTKAPPKPARAAPKIANGKAASSSSSSSSSSSSDDSEEEKAAATPKKTVPKKQVVAKAPVKAATTPTRKSSSSEDSSSDEEEEQKKPMKNKPGPYSSVPPPSAPPPKKSLGTQPPKKAVEKQQPVESSEDSSDESDSSSEEEKKPPTKAVVSKATTKPPPAKKAAESSSDSSDSDSSEDDEAPSKPAGTTKNSSNKPAVTTKSPAVKPAAAPKQPVGGGQKLLTRKADSSSSEEESSSSEEEKTKKMVATTKPKATAKAALSLPAKQAPQGSRDSSSDSDSSSSEEEEEKTSKSAVKKKPQKVAGGAAPSKPASAKKGKAESSNSSSSDDSSEEEEEKLKGKGSPRPQAPKANGTSALTAQNGKAAKNSEEEEEEKKKAAVVVSKSGSLKKRKQNEAAKEAETPQAKKIKLQTPNTFPKRKKGEKRASSPFRRVREEEIEVDSRVADNSFDAKRGAAGDWGERANQVLKFTKGKSFRHEKTKKKRGSYRGGSISVQVNSIKFDSE [NOLC1]”, the results for the thermal stability score in data set [1] (setting [5]) and in data set [1] (cell cycle stage: mitosis) were -2.83 and -4.21, respectively. For the same substance, the “solubility change mitosis (log2)” value in data set [2] was 1.11. For the same substance, the melting temperature in data set [3] (cell cycle stage: G1/S) is 59.5 °C; in data set [3] (cell cycle stage: mitosis), 57 °C. In addition, in data set [4], the “solubility in G1/S (log2)” value was -0.953.
Regarding “MGKSESQMDITDINTPKPKKKQRWTPLEISLSVLVLLLTIIAVTMIALYATYDDGICKSSDCIKSAARLIQNMDATTEPCTDFFKYACGGWLKRNVIPETSSRYGNFDILRDELEVVLKDVLQEPKTEDIVAVQKAKALYRSCINESAIDSRGGEPLLKLLPDIYGWPVATENWEQKYGASWTAEKAIAQLNSKYGKKVLINLFVGTDDKNSVNHVIHIDQPRLGLPSRDYYECTGIYKEACTAYVDFMISVARLIRQEERLPIDENQLALEMNKVMELEKEIANATAKPEDRNDPMLLYNKMTLAQIQNNFSLEINGKPFSWLNFTNEIMSTVNISITNEEDVVVYAPEYLTKLKPILTKYSARDLQNLMSWRFIMDLVSSLSRTYKESRNAFRKALYGTTSETATWRRCANYVNGNMENAVGRLYVEAAFAGESKHVVEDLIAQIREVFIQTLDDLTWMDAETKKRAEEKALAIKERIGYPDDIVSNDNKLNNEYLELNYKEDEYFENIIQNLKFSQSKQLKKLREKVDKDEWISGAAVVNAFYSSGRNQIVFPAGILQPPFFSAQQSNSLNYGGIGMVIGHEITHGFDDNGRNFNKDGDLVDWWTQQSASNFKEQSQCMVYQYGNFSWDLAGGQHLNGINTLGENIADNGGLGQAYRAYQNYIKKNGEEKLLPGLDLNHKQLFFLNFAQVWCGTYRPEYAVNSIKTDVHSPGNFRIIGTLQNSAEFSEAFHCRKNSYMNPEKKCRVW [MME]”, the thermal stability score in data set [1] (setting [5]) is -0.835; in data set [1] (cell cycle stage: mitosis) it was -0.832. Moreover, the “solubility change mitosis (log2)” value in data set [2] was -0.0403. For the same substance, the values for the melting temperature in data set [3] (cell cycle stage: G1/S) and in data set [3] (cell cycle stage: mitosis) were 53 °C and 55.9 °C, respectively. The “solubility in G1/S (log2)” value in data set [4] was -0.0691.
For the substance PLPP2, the thermal stability score was 0.347 in data set [1] (setting [5]) and -1.64 in data set [1] (cell cycle stage: mitosis). Besides, the “solubility change mitosis (log2)” value in data set [2] was -0.279. In addition, the melting temperature was determined as 55 °C in data set [3] (cell cycle stage: G1/S) and 54.3 °C in data set [3] (cell cycle stage: mitosis). In addition, in data set [4], the “solubility in G1/S (log2)” value is -0.0273.
Consider “MTDSKYFTTNKKGEIFELKAELNNEKKEKRKEAVKKVIAAMTVGKDVSSLFPDVVNCMQTDNLELKKLVYLYLMNYAKSQPDMAIMAVNSFVKDCEDPNPLIRALAVRTMGCIRVDKITEYLCEPLRKCLKDEDPYVRKTAAVCVAKLHDINAQMVEDQGFLDSLRDLIADSNPMVVANAVAALSEISESHPNSNLLDLNPQNINKLLTALNECTEWGQIFILDCLSNYNPKDDREAQSICERVTPRLSHANSAVVLSAVKVLMKFLELLPKDSDYYNMLLKKLAPPLVTLLSGEPEVQYVALRNINLIVQKRPEILKQEIKVFFVKYNDPIYVKLEKLDIMIRLASQANIAQVLAELKEYATEVDVDFVRKAVRAIGRCAIKVEQSAERCVSTLLDLIQTKVNYVVQEAIVVIRDIFRKYPNKYESIIATLCENLDSLDEPDARAAMIWIVGEYAERIDNADELLESFLEGFHDESTQVQLTLLTAIVKLFLKKPSETQELVQQVLSLATQDSDNPDLRDRGYIYWRLLSTDPVTAKEVVLSEKPLISEETDLIEPTLLDELICHIGSLASVYHKPPNAFVEGSHGIHRKHLPIHHGSTDAGDSPVGTTTATNLEQPQVIPSQGDLLGDLLNLDLGPPVNVPQVSSMQMGAVDLLGGGLDSLVGQSFIPSSVPATFAPSPTPAVVSSGLNDLFELSTGIGMAPGGYVAPKAVWLPAVKAKGLEISGTFTHRQGHIYMEMNFTNKALQHMTDFAIQFNKNSFGVIPSTPLAIHTPLMPNQSIDVSLPLNTLGPVMKMEPLNNLQVAVKNNIDVFYFSCLIPLNVLFVEDGKMERQVFLATWKDIPNENELQFQIKECHLNADTVSSKLQNNNVYTIAKRNVEGQDMLYQSLKLTNGIWILAELRIQPGNPNYTLSLKCRAPEVSQYIYQVYDSILKN [AP2B1]”, for which the thermal stability score was -1.91 in data set [1] (setting [5]) and 3.3 in data set [1] (cell cycle stage: mitosis). Moreover, the “solubility change mitosis (log2)” value in data set [2] was -0.0379. The melting temperature in data set [3] (cell cycle stage: G1/S) amounted to 51.6 °C; in data set [3] (cell cycle stage: mitosis), 52 °C. Further, in data set [4], the “solubility in G1/S (log2)” value was found to be 0.198.

For the origin of these results see the supplement of paper PMC5998384.
